Assay results published in patent US20230322958A1 (Genentech, published 2023).

How the values were obtained:
[1] = molecular target: T1, human Notch2 on U-87 MG cells (human, UniProt Q04721 26-2471); experiment: cell-based or functional assay
[2] = molecular target: T2, huNotch2-EGF6-10 (human, UniProt Q04721 219-418); experiment: SPR BIAcore, separate experiment, substantially as for Table 4
T2 construct: also called human Notch2 EGF6-10
T2 sequence: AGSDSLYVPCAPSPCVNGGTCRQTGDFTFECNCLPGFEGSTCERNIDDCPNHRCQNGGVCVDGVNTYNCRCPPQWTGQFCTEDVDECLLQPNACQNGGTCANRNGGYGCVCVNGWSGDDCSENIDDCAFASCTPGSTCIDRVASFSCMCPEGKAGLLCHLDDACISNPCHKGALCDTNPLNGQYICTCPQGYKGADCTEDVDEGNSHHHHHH
Description: (§1) The binding affinities of the antibodies was determined by BIAcore™ T200 machine. Rabbit antibodies were expressed as chimeric antibodies with rabbit variable domains and human constant domains. Rat antibodies were expressed as chimeric antibodies with rat variable domains and human constant regions. Humanized antibodies were expressed in the human IgG1 backbone. For kinetics measurements, antibodies were captured on research grade protein A chip (GE Healthcare) to achieve approximately 300 RU. Ten-fold serial dilutions of huNotch2-EGF6-10 were injected in HBS-P buffer with additional 3 mM CaCl₂ at 37° C. with a flow rate of 100 μL/min. Association rates (ka) and dissociation rates (kd) were calculated using a 1:1 Langmuir binding model (BIAcore™ T200 Evaluation Software version 2.0). The equilibrium dissociation constant (KD) was calculated as the ratio kd/ka.
In a separate experiment, the binding affinities of the humanized versions of the rat 3107 antibody were determined, substantially as described above.

[3] = molecular target: T2, huNotch2-EGF6-10; experiment: SPR BIAcore T200, antibody captured on protein A, 37 C
Description: as §1

[4] = molecular target: T1, human Notch2 on U-87 MG cells; experiment: cell-based or functional assay; remark: listed apart in the source

T1 sequence (Q04721 26-2471): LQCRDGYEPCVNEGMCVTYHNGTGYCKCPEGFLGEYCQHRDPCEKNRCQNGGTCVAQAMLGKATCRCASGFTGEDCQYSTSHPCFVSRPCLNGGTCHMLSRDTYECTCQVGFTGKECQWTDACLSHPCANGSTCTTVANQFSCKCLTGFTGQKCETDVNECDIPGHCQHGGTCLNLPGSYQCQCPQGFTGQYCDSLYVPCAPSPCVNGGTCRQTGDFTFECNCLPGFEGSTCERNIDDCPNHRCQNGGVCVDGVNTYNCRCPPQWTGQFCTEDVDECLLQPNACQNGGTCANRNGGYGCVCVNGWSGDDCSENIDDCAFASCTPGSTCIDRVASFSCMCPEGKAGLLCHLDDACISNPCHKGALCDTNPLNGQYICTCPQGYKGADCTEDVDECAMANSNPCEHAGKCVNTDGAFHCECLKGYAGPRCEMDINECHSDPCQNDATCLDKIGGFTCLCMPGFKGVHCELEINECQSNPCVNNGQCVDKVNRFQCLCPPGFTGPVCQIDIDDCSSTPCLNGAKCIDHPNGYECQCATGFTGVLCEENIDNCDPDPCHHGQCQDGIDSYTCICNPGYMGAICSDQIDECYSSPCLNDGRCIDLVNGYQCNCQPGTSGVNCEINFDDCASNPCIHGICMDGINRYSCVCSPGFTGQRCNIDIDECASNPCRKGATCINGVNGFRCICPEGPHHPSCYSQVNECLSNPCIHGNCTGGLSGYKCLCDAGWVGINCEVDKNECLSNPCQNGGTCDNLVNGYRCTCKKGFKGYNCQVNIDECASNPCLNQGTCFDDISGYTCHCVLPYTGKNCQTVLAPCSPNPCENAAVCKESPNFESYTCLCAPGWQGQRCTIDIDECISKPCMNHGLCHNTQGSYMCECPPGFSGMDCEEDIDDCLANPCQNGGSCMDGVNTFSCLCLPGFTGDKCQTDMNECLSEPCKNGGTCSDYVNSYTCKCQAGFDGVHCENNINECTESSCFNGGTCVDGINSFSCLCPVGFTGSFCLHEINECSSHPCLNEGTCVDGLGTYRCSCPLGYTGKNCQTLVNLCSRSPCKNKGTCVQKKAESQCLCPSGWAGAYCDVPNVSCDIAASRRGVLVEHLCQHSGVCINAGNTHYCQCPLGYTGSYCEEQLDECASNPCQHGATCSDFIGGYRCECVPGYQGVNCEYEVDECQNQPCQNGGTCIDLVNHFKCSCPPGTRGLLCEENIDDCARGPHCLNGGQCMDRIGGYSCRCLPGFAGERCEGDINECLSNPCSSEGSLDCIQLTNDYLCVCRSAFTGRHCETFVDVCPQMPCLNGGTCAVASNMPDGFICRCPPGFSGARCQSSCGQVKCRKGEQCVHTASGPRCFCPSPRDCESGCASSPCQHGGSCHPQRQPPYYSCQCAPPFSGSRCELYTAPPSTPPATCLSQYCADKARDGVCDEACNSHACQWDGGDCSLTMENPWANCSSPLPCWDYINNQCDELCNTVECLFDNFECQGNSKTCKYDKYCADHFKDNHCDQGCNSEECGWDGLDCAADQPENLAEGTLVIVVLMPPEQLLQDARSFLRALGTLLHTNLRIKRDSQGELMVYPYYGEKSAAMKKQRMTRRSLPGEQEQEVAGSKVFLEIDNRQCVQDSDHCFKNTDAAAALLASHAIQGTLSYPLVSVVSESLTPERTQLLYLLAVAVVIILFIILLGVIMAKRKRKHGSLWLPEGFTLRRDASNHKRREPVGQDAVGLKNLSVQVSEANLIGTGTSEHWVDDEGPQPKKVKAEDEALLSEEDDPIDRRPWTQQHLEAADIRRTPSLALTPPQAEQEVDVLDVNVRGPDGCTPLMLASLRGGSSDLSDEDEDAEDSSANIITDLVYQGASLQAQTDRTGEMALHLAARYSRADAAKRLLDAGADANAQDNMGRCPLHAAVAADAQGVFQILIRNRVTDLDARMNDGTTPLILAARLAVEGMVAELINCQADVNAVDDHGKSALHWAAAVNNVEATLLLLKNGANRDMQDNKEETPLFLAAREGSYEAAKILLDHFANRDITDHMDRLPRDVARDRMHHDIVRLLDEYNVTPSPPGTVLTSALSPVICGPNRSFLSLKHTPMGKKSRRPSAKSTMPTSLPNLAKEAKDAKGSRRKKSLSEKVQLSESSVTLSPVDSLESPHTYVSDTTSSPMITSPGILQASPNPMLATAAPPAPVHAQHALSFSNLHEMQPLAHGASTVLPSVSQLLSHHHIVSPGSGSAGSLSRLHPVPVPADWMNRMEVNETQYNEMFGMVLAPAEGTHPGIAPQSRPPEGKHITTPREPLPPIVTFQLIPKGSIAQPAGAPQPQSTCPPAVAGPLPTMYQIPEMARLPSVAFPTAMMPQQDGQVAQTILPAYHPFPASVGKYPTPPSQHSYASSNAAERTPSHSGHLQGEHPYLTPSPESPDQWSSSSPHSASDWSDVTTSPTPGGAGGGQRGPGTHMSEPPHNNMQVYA

Binder	Jagged1 IC50 [1] [nM]	Kd [2] [nM]	koff [2] [s⁻¹]	kon [2] [M⁻¹ s⁻¹]	Kd [3] [nM]	koff [3] [s⁻¹]	kon [3] [M⁻¹ s⁻¹]	DLL Inhibition (IC50) [4] [nM]	Jag1 Inhibition (IC50) [4] [nM]
hu.3107.L1H14 (antibody, V domains shown, also called hu.Notch-3107.L1H14) VH: EVQLVQSGAEVKKPGESLKISCKGSGYTFSNYVIHWVRQMPGKGPEWTGYIIPGSGGTKFNEKFKGQATISVDKSSTTAYLQWSSLKASDTAMYYCARDGAGSFTYWGQGTLVTVSS VL: DVVMTQSPLSLPVTLGQPASISCRSSQSLVHSDGNTYLHWFQQRPGQSPRLLIYRISNRFSGVPDRFSGSGSGTDFTLKISRVEAEDVGVYYCLQSTHFPDTFGGGTKVEIK	6.95	17.5	0.00631	360000	–	–	–	–	–
hu.3107.L6H14 (antibody, V domains shown, also called hu.Notch-3107.L6H14) VH: EVQLVQSGAEVKKPGESLKISCKGSGYTFSNYVIHWVRQMPGKGPEWTGYIIPGSGGTKFNEKFKGQATISVDKSSTTAYLQWSSLKASDTAMYYCARDGAGSFTYWGQGTLVTVSS VL: DVVMTQSPDSLAVSLGERATINCRSSQSLVHSDGNTYLHWFQQKPGQPPKLLIYRISNRFSGVPDRFSGSGSGTDFTLTISSLQAEDVAVYYCLQSTHFPDTFGGGTKVEIK	6.65	10	0.00354	354000	–	–	–	–	–
hu.3107.L1H12 (antibody, V domains shown, also called hu.Notch-3107.L1H12) VH: EVQLVQSGAEVKKPGASVKVSCKASGYTFSNYVIHWVRQAPGQGPEWTGYIIPGSGGTKFNEKFKGRATSTVDTSSTTAYMELSRLRSDDTVVYYCARDGAGSFTYWGQGTLVTVSS VL: DVVMTQSPLSLPVTLGQPASISCRSSQSLVHSDGNTYLHWFQQRPGQSPRLLIYRISNRFSGVPDRFSGSGSGTDFTLKISRVEAEDVGVYYCLQSTHFPDTFGGGTKVEIK	7.85	14.3	0.00542	380000	–	–	–	–	–
hu.3107.L7H14 (antibody, V domains shown, also called hu.Notch-3107.L7H14) VH: EVQLVQSGAEVKKPGESLKISCKGSGYTFSNYVIHWVRQMPGKGPEWTGYIIPGSGGTKFNEKFKGQATISVDKSSTTAYLQWSSLKASDTAMYYCARDGAGSFTYWGQGTLVTVSS VL: DIVMTQSPDSLAVSLGERATINCRSSQSLVHSDGNTYLHWYQQKPGQPPKLLIYRISNRFSGVPDRFSGSGSGTDFTLTISSLQAEDVAVYYCLQSTHFPDTFGGGTKVEIK	10.5	10.4	0.00359	346000	–	–	–	–	–
hu.3107.L7H15 (antibody, V domains shown, also called hu.Notch-3107.L7H15) VH: EVQLVQSGAEVKKPGESLKISCKGSGYTFSNYVIHWVRQMPGKGPEWTGYIIPGSGGTKFNEKFKGQATISVDKSITTAYLQWSSLKASDTAMYYCARDGAGSFTYWGQGTLVTVSS VL: DIVMTQSPDSLAVSLGERATINCRSSQSLVHSDGNTYLHWYQQKPGQPPKLLIYRISNRFSGVPDRFSGSGSGTDFTLTISSLQAEDVAVYYCLQSTHFPDTFGGGTKVEIK	9.16	11.6	0.00407	350000	–	–	–	–	–
hu.3107.L1H13 (antibody, V domains shown, also called hu.Notch-3107.L1H13) VH: EVQLVQSGAEVKKPGASVKVSCKASGYTFSNYVIHWVRQAPGQGPEWTGYIIPGSGGTKFNEKFKGRATSTVDTSITTAYMELSRLRSDDTVVYYCARDGAGSFTYWGQGTLVTVSS VL: DVVMTQSPLSLPVTLGQPASISCRSSQSLVHSDGNTYLHWFQQRPGQSPRLLIYRISNRFSGVPDRFSGSGSGTDFTLKISRVEAEDVGVYYCLQSTHFPDTFGGGTKVEIK	4.92	15.5	0.00587	379000	–	–	–	–	–
hu.3107.L6H15 (antibody, V domains shown, also called hu.Notch-3107.L6H15) VH: EVQLVQSGAEVKKPGESLKISCKGSGYTFSNYVIHWVRQMPGKGPEWTGYIIPGSGGTKFNEKFKGQATISVDKSITTAYLQWSSLKASDTAMYYCARDGAGSFTYWGQGTLVTVSS VL: DVVMTQSPDSLAVSLGERATINCRSSQSLVHSDGNTYLHWFQQKPGQPPKLLIYRISNRFSGVPDRFSGSGSGTDFTLTISSLQAEDVAVYYCLQSTHFPDTFGGGTKVEIK	8.03	9.23	0.00365	396000	–	–	–	–	–
hu.3107.L1H15 (antibody, V domains shown, also called hu.Notch-3107.L1H15) VH: EVQLVQSGAEVKKPGESLKISCKGSGYTFSNYVIHWVRQMPGKGPEWTGYIIPGSGGTKFNEKFKGQATISVDKSITTAYLQWSSLKASDTAMYYCARDGAGSFTYWGQGTLVTVSS VL: DVVMTQSPLSLPVTLGQPASISCRSSQSLVHSDGNTYLHWFQQRPGQSPRLLIYRISNRFSGVPDRFSGSGSGTDFTLKISRVEAEDVGVYYCLQSTHFPDTFGGGTKVEIK	6.08	17.9	0.00634	355000	–	–	–	–	–
hu.3107.L6H12 (antibody, V domains shown, also called hu.Notch-3107.L6H12) VH: EVQLVQSGAEVKKPGASVKVSCKASGYTFSNYVIHWVRQAPGQGPEWTGYIIPGSGGTKFNEKFKGRATSTVDTSSTTAYMELSRLRSDDTVVYYCARDGAGSFTYWGQGTLVTVSS VL: DVVMTQSPDSLAVSLGERATINCRSSQSLVHSDGNTYLHWFQQKPGQPPKLLIYRISNRFSGVPDRFSGSGSGTDFTLTISSLQAEDVAVYYCLQSTHFPDTFGGGTKVEIK	4.71	9.79	0.00404	413000	–	–	–	–	–
hu.3107.L7H13 (antibody, V domains shown, also called hu.Notch-3107.L7H13) VH: EVQLVQSGAEVKKPGASVKVSCKASGYTFSNYVIHWVRQAPGQGPEWTGYIIPGSGGTKFNEKFKGRATSTVDTSITTAYMELSRLRSDDTVVYYCARDGAGSFTYWGQGTLVTVSS VL: DIVMTQSPDSLAVSLGERATINCRSSQSLVHSDGNTYLHWYQQKPGQPPKLLIYRISNRFSGVPDRFSGSGSGTDFTLTISSLQAEDVAVYYCLQSTHFPDTFGGGTKVEIK	5.94	9.94	0.00353	355000	–	–	–	–	–
hu.3107.L7H12 (antibody, V domains shown, also called hu.Notch-3107.L7H12) VH: EVQLVQSGAEVKKPGASVKVSCKASGYTFSNYVIHWVRQAPGQGPEWTGYIIPGSGGTKFNEKFKGRATSTVDTSSTTAYMELSRLRSDDTVVYYCARDGAGSFTYWGQGTLVTVSS VL: DIVMTQSPDSLAVSLGERATINCRSSQSLVHSDGNTYLHWYQQKPGQPPKLLIYRISNRFSGVPDRFSGSGSGTDFTLTISSLQAEDVAVYYCLQSTHFPDTFGGGTKVEIK	11	9.54	0.00367	384000	–	–	–	–	–
hu.3107.L6H13 (antibody, V domains shown, also called hu.Notch-3107.L6H13) VH: EVQLVQSGAEVKKPGASVKVSCKASGYTFSNYVIHWVRQAPGQGPEWTGYIIPGSGGTKFNEKFKGRATSTVDTSITTAYMELSRLRSDDTVVYYCARDGAGSFTYWGQGTLVTVSS VL: DVVMTQSPDSLAVSLGERATINCRSSQSLVHSDGNTYLHWFQQKPGQPPKLLIYRISNRFSGVPDRFSGSGSGTDFTLTISSLQAEDVAVYYCLQSTHFPDTFGGGTKVEIK	6.42	9.47	0.00424	448000	–	–	–	–	–
hu1B2.L7H10 (antibody, V domains shown, Human IgG1 backbone) VH: EVQLVESGGGLVQPGGSLKLSCAVSGFTFSDFYMEWVRQASGKGLEWVAASRNKANDFSIVYSASVKDRFTISRDDSKSTAYLQMNSLKTEDTAVYYCSRDSGRWGLDAWGQGTLVTVSS VL: DIQMTQSPSSVSASVGDRVTITCQTSEDIYSGLAWYQQKPGKSPKLLIYGASRLQDGVPSRFSGSGSGTDYTLTISSLQPEDFATYYCQQGFKYPLTFGGGTKVEIK	–	–	–	–	9.94	0.00415	418000	–	–
1B2.v104.huFab.LC_K149C (Fab, V domains shown) VH: EVQLVESGGGLVQPGGSLKLSCAVSGFTFSDFYMEWVRQASGKGLEWVAAQRNKANDFSIVYSASVKDRFTISRDDSKSTLYLQMNSLKTEDTAVYYCSRDGGKLALDAWGQGTLVTVSS VL: DIQMTQSPSSVSASVGDRVTITCQTSEDIYSGLAWYQQKPGKSPKLLIYGASRLQDGVPSRFSGSGSGTDYTLTISSLQPEDFATYYCQQGFKYPLTFGGGTKVEIKR	–	–	–	–	–	–	–	50	120
hu1B2.L7H14 (antibody, V domains shown, Human IgG1 backbone; also called hu.1B2.DFS.H14L7) VH: EVQLVESGGGLVQPGGSLKLSCAVSGFTFSDFYMEWVRQASGKGLEWVAASRNKANDFSIVYSASVKDRFTISRDDSKSTLYLQMNSLKTEDTAVYYCSRDSGRWGLDAWGQGTLVTVSS VL: DIQMTQSPSSVSASVGDRVTITCQTSEDIYSGLAWYQQKPGKSPKLLIYGASRLQDGVPSRFSGSGSGTDYTLTISSLQPEDFATYYCQQGFKYPLTFGGGTKVEIK	–	–	–	–	6.13	0.00134	219000	–	–
1B2.v104.huFab.LC_K149C.dPEG6_dimer (other, engineered Cys (K149C) joined through maleimide to Bis-Mal-PEG6) heavy: EVQLVESGGGLVQPGGSLKLSCAVSGFTFSDFYMEWVRQASGKGLEWVAAQRNKANDFSIVYSASVKDRFTISRDDSKSTLYLQMNSLKTEDTAVYYCSRDGGKLALDAWGQGTLVTVSSASTKGPSVFPLAPSSKSTSGGTAALGCLVKDYFPEPVTVSWNSGALTSGVHTFPAVLQSSGLYSLSSVVTVPSSSLGTQTYICNVNHKPSNTKVDKKVEPKSCD light: DIQMTQSPSSVSASVGDRVTITCQTSEDIYSGLAWYQQKPGKSPKLLIYGASRLQDGVPSRFSGSGSGTDYTLTISSLQPEDFATYYCQQGFKYPLTFGGGTKVEIKRTVAAPSVFIFPPSDEQLKSGTASVVCLLNNFYPREAKVQWCVDNALQSGNSQESVTEQDSKDSTYSLSSTLTLSKADYEKHKVYACEVTHQGLSSPVTKSFNRGEC	–	–	–	–	–	–	–	> 1000	–
